Here are results for 13 molecules from US6479032 (DIATIDE, dated 2002).

Starred links: 1 amine or outer side, 2 acyl side, 3 side chain; linkers in the order of their positions; H or OH if unused. Positions of bridges follow the written chain, without caps; N, C: chain ends. Non-standard residues stand in square brackets, D forms with d. Groups on a side chain read outwards from the residue. No end group written: not given here. Hhc = homohomocysteine, O=C([C@H](CCCS[*:3])N[*:1])[*:2]; εLys = N[C@@H](CCCCN[*:1])C(=O)[*:2]; Asu = N[C@@H](CCCCCC(=O)O)C(=O)O; hCys = N[C@@H](CCS)C(=O)O

The target of assay [1] is T1, CT receptor of human breast tumor cell lines T-47D and MCF-7 (human, UniProt P30988 25-474).
T1 construct: whole, on cells; Native receptor; also called calcitonin receptor
T1 sequence (looked up): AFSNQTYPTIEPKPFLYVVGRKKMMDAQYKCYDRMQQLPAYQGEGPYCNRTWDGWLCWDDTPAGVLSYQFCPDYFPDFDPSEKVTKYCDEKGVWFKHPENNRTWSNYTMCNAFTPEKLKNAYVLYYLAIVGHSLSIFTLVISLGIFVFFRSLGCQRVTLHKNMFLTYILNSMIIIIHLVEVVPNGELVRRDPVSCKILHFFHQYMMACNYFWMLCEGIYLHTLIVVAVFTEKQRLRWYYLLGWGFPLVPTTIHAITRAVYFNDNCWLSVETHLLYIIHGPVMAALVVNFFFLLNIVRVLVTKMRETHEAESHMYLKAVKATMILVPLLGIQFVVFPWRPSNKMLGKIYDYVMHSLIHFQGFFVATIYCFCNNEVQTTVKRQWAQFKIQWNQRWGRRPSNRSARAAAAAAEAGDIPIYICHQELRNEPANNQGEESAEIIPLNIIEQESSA
Description: displacement of 125I-salmon CT, whole T-47D cells. From the text:
(§1) Assays using microsomal membrane fractions of rat brain and T47D cells (obtained from the American Type Culture Collection, Rockville, Md., ATCC Accession No. HTB-133) were used to identify analogs with high affinity for the CT receptor according to the method of Fisher et al. (1977, *British J. Cancer* 35: 777–784). Briefly, tissue was minced and homogenized. The membranes were washed several times, assayed for protein content and used in the binding assay. […] Both uncomplexed and ReO complexed reagents were tested.
(§2) Similar experiments were performed with additional peptide reagents within the scope of the invention, using whole cells. Binding was determined as described above.

Assay [2] concerns the target T1, CT receptor of human breast tumor cell …. Description: displacement of 125I-salmon CT, whole MCF-7 cells.
Source text: as §1, §2

The target is the same in assay [3]. The experiment in a line: displacement of 125I-salmon CT, T-47D cell membranes.
Source text: as §1, §2

B1: CH2CO.SNLST.Cys.VLGKLSC(CH2CO.(β-Dap)KCK.amide)ELHKLQTYPRTNTGSGTP.amide•ReO (peptide)
peptide: {CH2CO}-SNLSTCVLGKLSC([CH2CO-βDap-Lys-Cys-Lys-NH2])ELHKLQTYPRTNTGSGTP-NH2
modifications: thioether N-6; also: ReO complex
notes: Oxorhenium complex; also called Peptide 13 ReO complex
In turn, B1 registered an IC50 in assay [1] of 2.9 nM.

B2: CH2CO.SNLST.Hhc.VLGKLSC(CH2CO.(ε-K)GCE.amide)ELHKLQTYPRTNTGSGTP.amide•ReO (peptide)
peptide: {CH2CO}-SNLST[Hhc]VLGKLSC([CH2CO-εLys-Gly-Cys-Glu-NH2])ELHKLQTYPRTNTGSGTP-NH2
modifications: thioether N-6; also: ReO complex of chelator on Cys13
notes: Oxorhenium complex; also called Peptide 6 ReO complex
Take B2: the results for the IC50 in assay [1] and in assay [2] were 0.33 nM and 3.3 nM, respectively.

B3: CH2CO.SNLST.Hcy.VLGKLSC(CH2CO.(β-Dap)KCK.amide)ELHKLQTYPRTNTGSGTP.amide•ReO (peptide)
peptide: {CH2CO}-SNLST[hCys]VLGKLSC([CH2CO-βDap-Lys-Cys-Lys-NH2])ELHKLQTYPRTNTGSGTP-NH2
modifications: thioether N-6; also: ReO complex of chelator on Cys13
notes: Oxorhenium complex; also called Peptide 9 ReO complex
In assay [1], B3 registered an IC50 of 0.84 nM.

B4: CH2CO.SNLST.Hcy.VLGKLSC(CH2CO.(ε-K)GCE.amide)ELHKLQTYPRTNTGSGTP.amide•ReO (peptide)
peptide: {CH2CO}-SNLST[hCys]VLGKLSC([CH2CO-εLys-Gly-Cys-Glu-NH2])ELHKLQTYPRTNTGSGTP-NH2
modifications: thioether N-6; also: ReO complex of chelator on Cys13
notes: Oxorhenium complex; also called Peptide 10 ReO complex
For B4, the 50% inhibitory concentration (IC50) in assay [1] came to 0.89 nM.

B5: SNLST.Asu.VLGKLSC(CH2CO.(β-Dap)KCK.amide)ELHKLQTYPRTNTGSGTP.amide•ReO (peptide)
peptide: SNLST[Asu]VLGKLSC([CH2CO-βDap-Lys-Cys-Lys-NH2])ELHKLQTYPRTNTGSGTP-NH2
modifications: lactam N-6; also: ReO complex of chelator on Cys13
notes: Oxorhenium complex; also called Peptide 16 ReO complex
With B5, the half-maximal inhibitory concentration (IC50) in assay [1] was 2.7 nM; in assay [2], 8 nM.

B6: CSNLSTCVLGKLSQELHKLQTYPRTNTGSGTP-NH2 (salmon calcitonin) (ligand)
peptide: CSNLSTCVLGKLSQELHKLQTYPRTNTGSGTP-NH2
modifications: disulfide 1-7
notes: Unlabeled salmon calcitonin, bought (Sigma); also called salmon CT; sCT
B6: the concentration for half-maximal inhibition (IC50) in assay [2] was determined as 12.3 nM. This counts as double-digit nanomolar.

B7: CH2CO.SNLST.Cys.VLGKLSC(CH2CO.GGCK.amide)ELHKLQTYPRTNTGSGTP.amide•ReO (peptide)
peptide: {CH2CO}-SNLSTCVLGKLSC([CH2CO-Gly-Gly-Cys-Lys-NH2])ELHKLQTYPRTNTGSGTP-NH2
modifications: thioether N-6; also: ReO complex
notes: Oxorhenium complex; also called Peptide 12 ReO complex
As to B7, the IC50 in assay [1] was 1 nM; in assay [2] it was 5.2 nM.

B8: SNLST.Asu.VLGKLSC(CH2CO.(β-Dap)KCK.amide)ELHKLQTYPRTDVGAGTP.amide•ReO (peptide)
peptide: SNLST[Asu]VLGKLSC([CH2CO-βDap-Lys-Cys-Lys-NH2])ELHKLQTYPRTDVGAGTP-NH2
modifications: lactam N-6; also: ReO complex of chelator on Cys13
notes: Oxorhenium complex; also called Peptide 18 ReO complex
For B8, the IC50 was 0.55 nM in assay [1] and 7 nM in assay [2].

B9: CH2CO.SNLST.Hhc.VLGKLSC(CH2CO.GGCK.amide)ELHKLQTYPRTNTGSGTP.amide (peptide)
peptide: {CH2CO}-SNLST[Hhc]VLGKLSC([CH2CO-Gly-Gly-Cys-Lys-NH2])ELHKLQTYPRTNTGSGTP-NH2
modifications: thioether N-6
notes: also called Peptide 4
Turning to B9, the IC50 in assay [3] came to 2.6 nM.

B10: CH2CO.SNLST.Hhc.VLGKLSC(CH2CO.(β-Dap)KCK.amide)ELHKLQTYPRTNTGSGTP.amide (peptide)
peptide: {CH2CO}-SNLST[Hhc]VLGKLSC([CH2CO-βDap-Lys-Cys-Lys-NH2])ELHKLQTYPRTNTGSGTP-NH2
modifications: thioether N-6
notes: also called Peptide 5
Consider B10, for which the IC50 came to 0.42 nM in assay [1] and 5.8 nM in assay [2].

B11: CH2CO.SNLST.Hcy.VLGKLSC(CH2CO.GGCK.amide)ELHKLQTYPRTNTGSGTP.amide•ReO (peptide)
peptide: {CH2CO}-SNLST[hCys]VLGKLSC([CH2CO-Gly-Gly-Cys-Lys-NH2])ELHKLQTYPRTNTGSGTP-NH2
modifications: thioether N-6; also: ReO complex of chelator on Cys13
notes: Oxorhenium complex; also called Peptide 8 ReO complex
Turning to B11, the half-inhibitory concentration (IC50) is 0.83 nM in assay [1] and 4.8 nM in assay [2].

B12: CH2CO.SNLST.Cys.VLGKLSC(CH2CO.(ε-K)GCE.amide)ELHKLQTYPRTNTGSGTP.amide•ReO (peptide)
peptide: {CH2CO}-SNLSTCVLGKLSC([CH2CO-εLys-Gly-Cys-Glu-NH2])ELHKLQTYPRTNTGSGTP-NH2
modifications: thioether N-6; also: ReO complex
notes: Oxorhenium complex; also called Peptide 14 ReO complex
Turning to B12, the IC50 in assay [1] is 2.6 nM; in assay [2], 1.9 nM.

B13: CH2CO.SNLST.Hhc.VLGKLSCELHKLQTYPRTNTGSGTP.amide (peptide)
peptide: {CH2CO}-SNLST[Hhc]VLGKLSCELHKLQTYPRTNTGSGTP-NH2
modifications: thioether N-6
notes: also called Peptide 3
As for B13, the IC50 in assay [3] was 1.6 nM.
